Source: EP4541444A1 (Cytiva BioProcess R&D AB, dated 2025)

Molecular target: T1, human serum albumin (human, UniProt P02768 25-609)
T1 construct: also called HSA
Assay: SPR (Biacore), ligand immobilized on chip

B1: scFvHSA (scFv)
scFv: EVQLLESGGGLVQPGGSLRLSCAVSGIDLSNYAINWVRQAPGKGLEWIGIIWASGTTFYATWAKGRFTISRDNSKNTVYLQMNSLRAEDTAVYYCARTVPGYSTAPYFDLWGQGTLVTVSSGGGGSGGGGSGGGGSDIQMTQSPSSVSASVGDRVTITCQSSPSVWSNFLSWYQQKPGKAPKLLIYEASKLTSGVPSRFSGSGSGTDFTLTISSLQPEDFATYYCGGGYSSISDTTFGGGTKVEIKRTVQASGSHHHHHH
notes: also called anti-HSA scFv
- binding result: binds
